Reference: patent US20180312588A1 (KITE PHARMA, published 2018)

Experiments:
[1] = biological target: T1, human CD19 (on Raji cells, CD19+ homo sapiens Burkitt's lymphoma) (human, UniProt P15391 20-556); assay: flow cytometry titration on Raji cells, anti-His FITC; scFv at log(nM) 2.522879
T1 construct: whole, on cells; also called B-lymphocyte antigen CD19; B4
T1 sequence (looked up): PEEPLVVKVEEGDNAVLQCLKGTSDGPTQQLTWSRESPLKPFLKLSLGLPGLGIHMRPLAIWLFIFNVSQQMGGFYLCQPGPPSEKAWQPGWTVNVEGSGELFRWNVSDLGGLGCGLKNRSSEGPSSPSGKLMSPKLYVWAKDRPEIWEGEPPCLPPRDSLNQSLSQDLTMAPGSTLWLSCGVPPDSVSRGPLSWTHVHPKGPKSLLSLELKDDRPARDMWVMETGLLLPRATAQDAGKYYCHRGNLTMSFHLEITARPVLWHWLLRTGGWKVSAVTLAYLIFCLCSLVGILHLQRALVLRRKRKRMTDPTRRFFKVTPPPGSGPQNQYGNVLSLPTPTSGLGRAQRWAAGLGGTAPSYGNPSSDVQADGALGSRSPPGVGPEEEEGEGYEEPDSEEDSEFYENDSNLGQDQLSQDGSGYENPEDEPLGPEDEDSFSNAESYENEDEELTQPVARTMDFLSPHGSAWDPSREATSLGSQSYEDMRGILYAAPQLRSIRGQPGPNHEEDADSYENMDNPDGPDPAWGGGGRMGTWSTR
Method: (§1) In brief, Raji cells were cultured and harvested by centrifugation. About 3×10⁵ cells per well were washed with PBS twice and incubated in 200 μl of serial dilutions of scFvs for 30 minutes at 4° C. After washing with PBS, secondary antibody (5 μg/ml His Tag antibody [FITC]) was added to the cells and incubated for 30 minutes at 4° C. After washing with PBS, cells were analyzed for binding EC50 by using FACSCalibur™ and FlowJo software.

[2] = biological target: T1, human CD19 (on Raji cells, CD19+ homo …); assay: flow cytometry titration on Raji cells, anti-His FITC; scFv at log(nM) 0.137273
Method: as §1

[3] = biological target: T1, human CD19 (on Raji cells, CD19+ homo …); assay: flow cytometry titration on Raji cells, anti-His FITC; scFv at log(nM) 3
Method: as §1

[4] = biological target: T1, human CD19 (on Raji cells, CD19+ homo …); assay: flow cytometry titration on Raji cells, anti-His FITC; scFv at log(nM) 0.614394
Method: as §1

[5] = biological target: T1, human CD19 (on Raji cells, CD19+ homo …); assay: flow cytometry titration on Raji cells, anti-His FITC; scFv at log(nM) 1.568636
Method: as §1

[6] = biological target: T1, human CD19 (on Raji cells, CD19+ homo …); assay: flow cytometry titration on Raji cells, anti-His FITC; scFv at log(nM) 2.045758
Method: as §1

[7] = biological target: T1, human CD19 (on Raji cells, CD19+ homo …); assay: flow cytometry titration on Raji cells, anti-His FITC; scFv at log(nM) 3.477121
Method: as §1

[8] = biological target: T1, human CD19 (on Raji cells, CD19+ homo …); assay: flow cytometry titration on Raji cells, anti-His FITC
Method: as §1

[9] = biological target: T1, human CD19 (on Raji cells, CD19+ homo …); assay: flow cytometry titration on Raji cells, anti-His FITC; scFv at log(nM) 1.091515
Method: as §1

B1: SS-scFv (scFv)
scFv: DIQMTQSPSFLSASVGDRVTITCRASQDISKYLNWYQQKPDQAPKLLIKHTSRLHSGVPSRFSGSGSGTDFTFTISSLQPEDIATYYCQQGNTLPYTFGQGTKLEIKGSTSGSGKPGSGEGSTKGEVQLVESGGGLVQPGRSLRLSCTASGVSLPDYGVSWVRQPPGKGLEWIGVIWGSETTYYNSALKSRFTISRDNSKNTLYLQMNSLRAEDTAVYYCAKHYYYGGSYAMDYWGQGTLVTVSSHHHHHH
notes: leader left out here
geometric mean (FACS titration) [1]: 60.4 | geometric mean (FACS titration) [2]: 13.9 | geometric mean (FACS titration) [3]: 61.7 | geometric mean (FACS titration) [4]: 13.9 | geometric mean (FACS titration) [5]: 19.3 | geometric mean (FACS titration) [6]: 51.4 | geometric mean (FACS titration) [7]: 62 | EC50 [8]: 72.8 nM | geometric mean (FACS titration) [9]: 14.6

B2: JS-scFv (scFv)
scFv: DIQMTQSPSSLSASVGDRVTITCRASQDISKYLNWYQQKPDQAPKLLIKHTSRLHSGVPSRFSGSGSGTDYTLTISSLQPEDFATYYCQQGNTLPYTFGQGTKLEIKGSTSGSGKPGSGEGSTKGEVQLVESGGGLVQPGRSLRLSCTASGVSLPDYGVSWIRQPPGKGLEWIGVIWGSETTYYNSALKSRFTISRDNSKNTLYLQMNSLRAEDTAVYYCAKHYYYGGSYAMDYWGQGTLVTVSSHHHHHH
notes: leader left out here
geometric mean (FACS titration) [1]: 58.9 | geometric mean (FACS titration) [2]: 13.4 | geometric mean (FACS titration) [3]: 59.7 | geometric mean (FACS titration) [4]: 13.3 | geometric mean (FACS titration) [5]: 25.7 | geometric mean (FACS titration) [6]: 46.6 | geometric mean (FACS titration) [7]: 60.2 | EC50 [8]: 66 nM | geometric mean (FACS titration) [9]: 13.6

B3: AS-scFv (scFv)
scFv: DIQMTQSPSTLSASVGDRVTITCRASQDISKYLNWYQQKPDQAPKLLIKHTSRLHSGVPSRFSGSGSGTDFTFTISSLQPEDIATYYCQQGNTLPYTFGQGTKLEIKGSTSGSGKPGSGEGSTKGQVQLQESGPGLVKPSGTLSLTCAVSGVSLPDYGVSWIRQPPGKGLEWIGVIWGSETTYYNSALKSRVTISRDNSKNTLYLQMNSLRAEDTAVYYCAKHYYYGGSYAMDYWGQGTLVTVSSHHHHHH
notes: leader left out here
geometric mean (FACS titration) [1]: 63.9 | geometric mean (FACS titration) [2]: 14.2 | geometric mean (FACS titration) [3]: 62.4 | geometric mean (FACS titration) [4]: 14 | geometric mean (FACS titration) [5]: 19.4 | geometric mean (FACS titration) [6]: 62.4 | geometric mean (FACS titration) [7]: 62.7 | EC50 [8]: 53.1 nM | geometric mean (FACS titration) [9]: 14.5

B4: NS-scFv (scFv)
scFv: DIQMTQSPSSLSASVGDRVTITCRASQDISKYLNWYQQKPGKAVKLLIYHTSRLHSGVPSRFSGSGSGTDYTLTISSLQPEDIATYFCQQGNTLPYTFGGGTKLEIKGSTSGSGKPGSGEGSTKGQVQLQESGPGLVKPSETLSVTCTVSGVSLPDYGVSWIRQPPGKGLEWLGVIWGSETTYYNSALKSRLTISKDTSKNQVFLKMSSLTAADTAIYYCAKHYYYGGSYAMDYWGQGTLVTVSSHHHHHH
notes: leader left out here
geometric mean (FACS titration) [1]: 61.6 | geometric mean (FACS titration) [2]: 15.7 | geometric mean (FACS titration) [3]: 61.9 | geometric mean (FACS titration) [4]: 15.5 | geometric mean (FACS titration) [5]: 41.2 | geometric mean (FACS titration) [6]: 56.3 | geometric mean (FACS titration) [7]: 60.7 | EC50 [8]: 34 nM | geometric mean (FACS titration) [9]: 15.1
